{"source": "paper PMC10617564", "about": "“Efficient clathrin-mediated entry of enteric adenoviruses in human duodenal cells” (Journal of Virology, 2023)", "molecular_target": "CAR (CXADR Fc chimera full-length extracellular D1D2 domain) (UniProt P78310)", "sequence (P78310 20-237, change not shown)": "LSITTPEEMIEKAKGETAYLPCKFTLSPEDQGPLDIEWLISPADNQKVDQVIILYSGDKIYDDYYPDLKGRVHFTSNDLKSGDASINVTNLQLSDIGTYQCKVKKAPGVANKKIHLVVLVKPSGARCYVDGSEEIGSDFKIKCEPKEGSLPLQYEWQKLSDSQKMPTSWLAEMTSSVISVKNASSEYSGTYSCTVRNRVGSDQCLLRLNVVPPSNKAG", "test": "SPR; Biacore T-200; CAR-Fc amine-coupled to a CM5 chip (~1,500 response units); analytes in twofold dilutions 2000 to 7.81125 nM, injected 120 s at 30 uL/min; 25°C; 10 mM phosphate buffer pH 7.4, 140 mM NaCl, 0.27 mM KCl, 0.05% Tween20; regeneration with 10 mM glycine pH 1.5; three independent experiments", "note": "pKd: −log10 of the molar value.", "data": [{"substance": "HAdV-F40 long fiber knob (domain or fragment)", "values": [{"measurement": "pKd", "result": 7.59}]}, {"substance": "HAdV-F41 long fiber knob (domain or fragment)", "values": [{"measurement": "pKd", "result": 8.20}]}]}
